Assay results: US20030232753A1
Values joined by “and” are separate entries in the source; they are usually repeats but may differ in a detail not shown here. Identical values can stand only once. Like-named read-outs stand apart in the source and are kept apart here.

How the values were obtained:
Assay in all cases: cell-based or functional assay
[1] = molecular target: H6-tTF219-cys-C′ (human) (UniProt P13726)
[2] = molecular target: tTF221-cys-C′ (human) (UniProt P13726)
[3] = molecular target: IgG-H6-N′-cys-tTF219 (human) (UniProt P13726)
IgG-H6-N′-cys-tTF219 (human), sequence (P13726 other isoform, or with tags, fused parts or gaps limits assumed): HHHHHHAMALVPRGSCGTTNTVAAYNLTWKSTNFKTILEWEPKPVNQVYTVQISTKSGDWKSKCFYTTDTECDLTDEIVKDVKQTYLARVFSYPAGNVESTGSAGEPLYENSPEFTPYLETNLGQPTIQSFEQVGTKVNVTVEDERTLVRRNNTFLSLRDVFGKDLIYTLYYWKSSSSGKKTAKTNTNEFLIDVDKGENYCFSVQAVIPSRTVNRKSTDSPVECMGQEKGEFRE

[4] = molecular target: tTF220-cys-C′ (human) (UniProt P13726)
tTF220-cys-C′ (human), sequence (P13726 other isoform, or with tags, fused parts or gaps): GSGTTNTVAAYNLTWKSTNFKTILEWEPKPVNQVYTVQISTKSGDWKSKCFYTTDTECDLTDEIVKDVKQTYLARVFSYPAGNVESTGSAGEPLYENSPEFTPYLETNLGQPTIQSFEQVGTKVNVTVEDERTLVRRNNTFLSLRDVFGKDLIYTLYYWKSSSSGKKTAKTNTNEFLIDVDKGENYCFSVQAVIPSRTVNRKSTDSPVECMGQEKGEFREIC

[5] = molecular target: tTF219, truncated Tissue Factor (extracellular domain of mature Tissue Factor, amino acids 1-219) (human) (UniProt P13726)
tTF219, truncated Tissue Factor (extracellular domain of mature Tissue Factor, amino acids 1-219) (human), sequence (P13726 other isoform, or with tags, fused parts or gaps): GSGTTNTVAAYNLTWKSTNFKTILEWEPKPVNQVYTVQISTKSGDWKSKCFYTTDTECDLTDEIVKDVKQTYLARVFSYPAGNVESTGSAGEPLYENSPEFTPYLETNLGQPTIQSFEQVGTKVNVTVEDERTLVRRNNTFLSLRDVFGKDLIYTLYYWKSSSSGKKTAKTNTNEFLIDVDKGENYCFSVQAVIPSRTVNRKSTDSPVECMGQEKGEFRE

[6] = molecular target: H6-N′-cys-tTF219 (human) (UniProt P13726)
[7] = molecular target: H6-tTF221-cys-C′ (human) (UniProt P13726)
H6-tTF221-cys-C′ (human), sequence (P13726 other isoform, or with tags, fused parts or gaps limits assumed): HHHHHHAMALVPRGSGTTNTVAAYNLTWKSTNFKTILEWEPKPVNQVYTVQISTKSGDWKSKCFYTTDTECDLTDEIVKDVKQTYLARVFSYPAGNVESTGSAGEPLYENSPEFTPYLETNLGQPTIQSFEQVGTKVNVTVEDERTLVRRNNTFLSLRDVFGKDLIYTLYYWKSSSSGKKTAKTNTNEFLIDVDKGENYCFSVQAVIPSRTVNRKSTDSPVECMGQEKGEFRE

[8] = molecular target: H6-tTF220-cys-C′ (human) (UniProt P13726)
[9] = molecular target: tTF219, truncated Tissue Factor (extracellular domain of mature Tissue Factor, amino acids 1-219) (human) (UniProt P13726); remark: listed apart in the source
[10] = molecular target: IgG-H6-N′-cys-tTF219 (human) (UniProt P13726); remark: listed apart in the source
[11] = molecular target: tTF219, truncated Tissue Factor (extracellular domain of mature Tissue Factor, amino acids 1-219) (human) (UniProt P13726); remark: listed apart in the source
[12] = molecular target: H6-N′-cys-tTF219 (human) (UniProt P13726); remark: listed apart in the source
[13] = molecular target: H6-N′-cys-tTF219 dimer (human) (UniProt P13726)
[14] = molecular target: H6-tTF221-cys-C′ dimer (human) (UniProt P13726)
[15] = molecular target: tTF219, truncated Tissue Factor (extracellular domain of mature Tissue Factor, amino acids 1-219) (human) (UniProt P13726); remark: listed apart in the source
[16] = molecular target: H6-tTF221-cys-C′ (human) (UniProt P13726); remark: listed apart in the source

tTF221-cys-C′ (human), sequence (P13726 other isoform, or with tags, fused parts or gaps): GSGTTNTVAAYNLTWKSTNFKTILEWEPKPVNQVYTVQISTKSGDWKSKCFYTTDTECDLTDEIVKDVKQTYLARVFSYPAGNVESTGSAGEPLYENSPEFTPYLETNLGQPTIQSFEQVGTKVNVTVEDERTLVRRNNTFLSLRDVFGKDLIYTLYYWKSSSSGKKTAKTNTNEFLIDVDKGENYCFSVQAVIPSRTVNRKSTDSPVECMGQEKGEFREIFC
H6-tTF219-cys-C′ (human), sequence (P13726 other isoform, or with tags, fused parts or gaps): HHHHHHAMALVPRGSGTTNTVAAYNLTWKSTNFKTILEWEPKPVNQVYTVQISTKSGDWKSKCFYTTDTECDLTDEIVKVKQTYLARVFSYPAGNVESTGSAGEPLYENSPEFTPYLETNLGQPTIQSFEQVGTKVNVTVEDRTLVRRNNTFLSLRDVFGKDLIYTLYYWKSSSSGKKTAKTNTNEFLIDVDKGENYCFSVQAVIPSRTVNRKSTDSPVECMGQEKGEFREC

tTF concentration giving coagulation in 50 seconds [1]: 3 nM
tTF concentration giving coagulation in 50 seconds [2]: 500 pM
fold less active than H6-N′-cys-tTF219 at inducing Xa formation [3]: 2 fold
tTF concentration giving coagulation in 50 seconds [4]: 500 pM
clotting time [5]: 60 s
clotting time (time for the first fibrin strands to form), mouse plasma on A20 cells [5]: 36 s
tTF concentration giving coagulation in 50 seconds [5]: 500 pM
tTF concentration giving coagulation in 50 seconds [6]: 3 nM
tTF concentration giving coagulation in 50 seconds [7]: 500 pM
tTF concentration giving coagulation in 50 seconds [8]: 500 pM
tTF concentration giving coagulation in 50 seconds [9]: 3 nM
fold reduction of coagulation inducing activity relative to unconjugated H6-N′-cys-tTF219 or tTF219 [10]: 5 fold
tTF concentration giving coagulation in 50 seconds [10]: 5 nM
tTF concentration giving coagulation in 50 seconds [11]: 1 nM
tTF concentration giving coagulation in 50 seconds [12]: 1 nM
tTF concentration giving coagulation in 50 seconds [13]: 100 pM and 200 pM
fold less active than H6-tTF221-cys-C′ monomer or tTF219 at inducing coagulation [14]: 4 fold
tTF concentration giving coagulation in 50 seconds [14]: 4 nM
tTF concentration giving coagulation in 50 seconds [15]: 100 pM and 200 pM
tTF concentration giving coagulation in 50 seconds [16]: 1 nM
Substance: B21-2/10H10 bispecific antibody (Fab′ arm of the B21-2 antibody, specific for I-A^d, linked to the Fab′ arm of the 10H10 antibody, specific for tTF)
